Results on one molecule are retold here after publication PMC9108619.

The target in the assay is T1, UPF2 (endogenous), Q9HAU5.
T1 chain: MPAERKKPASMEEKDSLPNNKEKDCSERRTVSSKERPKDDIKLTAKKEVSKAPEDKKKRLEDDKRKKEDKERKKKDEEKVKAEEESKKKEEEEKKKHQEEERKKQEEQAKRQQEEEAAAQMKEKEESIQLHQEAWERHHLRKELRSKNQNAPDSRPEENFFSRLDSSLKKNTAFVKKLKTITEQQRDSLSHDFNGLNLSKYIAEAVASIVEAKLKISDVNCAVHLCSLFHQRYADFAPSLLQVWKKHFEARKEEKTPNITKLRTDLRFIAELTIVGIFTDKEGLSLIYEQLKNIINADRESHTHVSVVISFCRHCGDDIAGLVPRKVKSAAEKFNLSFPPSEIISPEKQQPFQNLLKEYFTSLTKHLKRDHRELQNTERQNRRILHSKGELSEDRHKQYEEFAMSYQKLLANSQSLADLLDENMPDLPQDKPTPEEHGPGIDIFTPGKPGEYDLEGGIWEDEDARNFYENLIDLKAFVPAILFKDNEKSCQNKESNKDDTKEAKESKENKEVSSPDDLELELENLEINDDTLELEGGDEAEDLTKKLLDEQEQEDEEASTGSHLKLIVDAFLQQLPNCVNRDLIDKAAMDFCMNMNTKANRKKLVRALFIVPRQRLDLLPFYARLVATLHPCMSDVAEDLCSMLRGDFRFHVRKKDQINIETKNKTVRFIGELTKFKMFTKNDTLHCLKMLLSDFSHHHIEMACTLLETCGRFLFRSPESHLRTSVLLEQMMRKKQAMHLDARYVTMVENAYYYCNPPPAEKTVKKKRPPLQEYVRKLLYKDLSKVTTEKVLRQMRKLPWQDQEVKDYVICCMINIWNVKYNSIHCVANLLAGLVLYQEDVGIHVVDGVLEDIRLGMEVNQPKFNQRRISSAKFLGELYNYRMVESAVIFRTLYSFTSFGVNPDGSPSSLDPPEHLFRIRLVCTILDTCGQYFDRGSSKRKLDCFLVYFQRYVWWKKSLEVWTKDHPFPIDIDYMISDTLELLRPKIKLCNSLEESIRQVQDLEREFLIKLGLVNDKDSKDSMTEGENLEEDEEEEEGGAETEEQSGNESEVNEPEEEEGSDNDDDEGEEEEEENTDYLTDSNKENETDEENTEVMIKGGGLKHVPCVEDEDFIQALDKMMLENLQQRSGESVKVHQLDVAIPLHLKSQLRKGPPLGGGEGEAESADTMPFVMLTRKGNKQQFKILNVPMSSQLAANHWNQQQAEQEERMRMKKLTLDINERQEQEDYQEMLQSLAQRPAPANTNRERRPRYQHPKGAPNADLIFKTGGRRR
The experiment in a line: TurboID proximity labelling, streptavidin enrichment, mass spectrometry. The note with it: chain shown with the change; UPF3B KO + UPF3A KD cells; n = 3 biologically independent samples; read off a plot.

B1: FLAG-TurboID-UPF3B, Q9BZI7-2 K52D; RR56EE (protein)
chain: MKEEKEHRPKEKRVTLLTPAGATGSGGGTSGDSSKGEDKQDRNKEKKEALSDVVIEELPPTLTKEQLQEHLQPMPEHDYFEFFSNDTSLYPHMYARAYINFKNQEDIILFRDRFDGYVFLDNKGQEYPAIVEFAPFQKAAKKKTKKRDTKVGTIDDDPEYRKFLESYATDNEKMTSTPETLLEEIEAKNRELIAKKTTPLLSFLKNKQRMREEKREERRRREIERKRQREEERRKWKEEEKRKRKDIEKLKKIDRIPERDKLKDEPKIKLLKKPEKGDEKELDKREKAKKLDKENLSDERASGQSCTLPKRSDSELKDEKPKRPEDESGRDYREREREYERDQERILRERERLKRQEEERRRQKERYEKEKTFKRKEEEMKKEKDTLRDKGKKAESTESIGSSEKTEKKEEVVKRDRIRNKDRPAMQLYQPGARSRNRLCPPDDSTKSGDSAAERKQESGISHRKEGGEE
In the case of B1, the other: log2 fold change was -1.8.
